# Source: doi:10.1101/2020.12.03.409334
# Molecular target: 4R1N tau::mCherry::Cry2Olig chimera (UniProt P10636)
# Assay: native gel or EMSA
substance,measurement,value
4R1N tau::mCherry::Cry2Olig chimera (from UniProt P10636-7 1-412),stoichiometry N,2
